Source: article doi:10.1101/2020.10.14.338756

Tests used:
[1] = molecular target: BPTI_A16S, displayed on yeast (bovine)
[2] = molecular target: BPTI_K15A, displayed on yeast (bovine)
[3] = molecular target: BPTI_K15R, displayed on yeast (bovine)

ΔΔG bind against BPTIWT [1]: 4.5 kcal/mol
ΔΔG bind against BPTIWT [2]: 11.1 kcal/mol
ΔΔG bind against BPTIWT [3]: -1.4 kcal/mol
Substance: Bovine trypsin (enzyme)
